Test results published in publication PMC9640623, “SAMHD1 deacetylation by SIRT1 promotes DNA end resection by facilitating DNA binding at double-strand breaks” (Nature Communications, 2021).

Target: T1, 6xHis-SAMHD1 wild-type (full-length, recombinant) (human, UniProt Q9Y3Z3 1-626)
T1 construct: SAMHD1, full-length, from pET14b-6xHis-SAMHD1 (gift from Dr. Baek Kim); with N-terminal His tag and linker region, calculated molecular weight 74 kDa; Tetramer only stated after preincubation with dGTP; also called recombinant SAMHD1; SAMHD1 WT protein; source: E. coli BL21 Rosetta, purified (His-Trap, Superdex 200 SEC); not shown: His6, N-terminal, kept
Assay: pull-down; GST-SIRT1 (193-741) pre-incubated with glutathione-agarose beads in 50 mM Tris-Cl pH 8, 150 mM NaCl, protease inhibitors, 1 h at 4 °C; recombinant SAMHD1 added for 2 h at 4 °C; blots with anti-SAMHD1 or anti-GST
Settings: both partners purified

T1 sequence (Q9Y3Z3 whole entry): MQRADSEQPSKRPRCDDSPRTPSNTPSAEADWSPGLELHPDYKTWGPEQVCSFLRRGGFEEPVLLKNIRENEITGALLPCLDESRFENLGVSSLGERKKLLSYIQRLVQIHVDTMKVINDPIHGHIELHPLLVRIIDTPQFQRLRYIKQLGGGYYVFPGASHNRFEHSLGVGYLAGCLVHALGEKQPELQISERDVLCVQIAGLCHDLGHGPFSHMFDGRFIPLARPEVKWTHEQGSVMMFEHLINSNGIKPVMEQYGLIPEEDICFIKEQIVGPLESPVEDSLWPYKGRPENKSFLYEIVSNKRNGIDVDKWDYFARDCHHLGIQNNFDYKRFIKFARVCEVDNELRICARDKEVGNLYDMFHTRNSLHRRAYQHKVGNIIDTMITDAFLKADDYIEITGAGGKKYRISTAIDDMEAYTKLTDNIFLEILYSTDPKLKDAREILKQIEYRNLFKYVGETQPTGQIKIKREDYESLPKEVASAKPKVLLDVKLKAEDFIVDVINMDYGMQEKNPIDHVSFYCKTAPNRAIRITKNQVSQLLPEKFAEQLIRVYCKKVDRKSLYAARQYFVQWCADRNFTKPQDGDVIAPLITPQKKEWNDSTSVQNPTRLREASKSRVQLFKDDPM

- binding result: binds
B1: GST-SIRT1 (containing amino acids 193-741 of SIRT1) (domain or fragment, UniProt Q96EB6 193-741, looked up)
chain: MIGTDPRTILKDLLPETIPPPELDDMTLWQIVINILSEPPKRKKRKDINTIEDAVKLLQECKKIIVLTGAGVSVSCGIPDFRSRDGIYARLAVDFPDLPDPQAMFDIEYFRKDPRPFFKFAKEIYPGQFQPSLCHKFIALSDKEGKLLRNYTQNIDTLEQVAGIQRIIQCHGSFATASCLICKYKVDCEAVRGDIFNQVVPRCPRCPADEPLAIMKPEIVFFGENLPEQFHRAMKYDKDEVDLLIVIGSSLKVRPVALIPSSIPHEVPQILINREPLPHLHFDVELLGDCDVIINELCHRLGGEYAKLCCNPVKLSEITEKPPRTQKELAYLSELPPTPLHVSEDSSSPERTSPPDSSVIVTLLDQAAKSNDDLDVSESKGCMEEKPQEVQTSRNVESIAEQMENPDLKNVGSSTGEKNERTSVAGTVRKCWPNRVAKEQISRRLDGNQYLFLPPNRYIFHGAEVYSDSEDDVLSSSSCGSNSDSGTCQSPSLEEPMEDESEIEEFYNGLEDEPDVPERAGGAGFGTDGDDQEAINEAISVKQEVTDMN
notes: SIRT1 amino acids 193-741, recombinant, lacking N-terminal amino acids 1-192; The results call it bacterially-purified; also called GST-SIRT1 (lacking N-terminal amino acids 1–192); source: bought: Active Motif # 31533
